Results from patent US20180030151A1 (MOGAM INSTITUTE FOR BIOMEDICAL RESEARCH, published 2018).
Positions count from the first letter of the chain named. Like-named read-outs stand apart in the source and are kept apart here. One block for each binder: values may come before it.

Key:
Assay in all cases: cell-based or functional assay
[1] = biological target: T1, recombinant human TFPI (tissue factor pathway inhibitor) (human, UniProt P10646 29-304)
[2] = biological target: T1, recombinant human TFPI (tissue factor …); remark: listed apart in the source
[3] = biological target: T1, recombinant human TFPI (tissue factor …); remark: listed apart in the source
[4] = biological target: T1, recombinant human TFPI (tissue factor …); remark: listed apart in the source
[5] = biological target: T1, recombinant human TFPI (tissue factor …); remark: listed apart in the source
[6] = biological target: T1, recombinant human TFPI (tissue factor …); remark: listed apart in the source

B1: clone 10 (antibody, V domains shown)
VH: EVQLVESGGGLVKPGGSLRLSCAASGFTFSSYAMNWVRQAPGKGLEWVSTITTGGSYTYYADSVQGRFTISRDNAKNSLYLQMNSLRAEDTAVYYCARQDGNFLMDYWGQGTLVTVSS
VL: DVVMTQTPLSLPVTLGQPASISCKSSPSLLDVDGKTYLNWLQQRPGQSPKRLIYLVSKLDSGVPDRFTGSGSGTDFTLKISRVEAEDVGVYYCWQGTHFPFTFGQGTKVEIKR
FXa assay % of FXa alone, 2.5 nM Ab, 10 nM TFPI [1]: 9.6%
FXa assay % of FXa alone, 5 nM Ab, 10 nM TFPI [1]: 5.1%
FXa assay % of FXa alone, 10 nM Ab, 10 nM TFPI [1]: 11.8%
FXa assay % of FXa alone, 20 nM Ab, 10 nM TFPI [1]: 38.4%
FXa assay OD, 2.5 nM Ab, 10 nM TFPI [1]: 0.073
FXa assay OD, 5 nM Ab, 10 nM TFPI [1]: 0.0385
FXa assay OD, 10 nM Ab, 10 nM TFPI [1]: 0.09
FXa assay OD, 20 nM Ab, 10 nM TFPI [1]: 0.292

B5: clone 1234 (antibody, V domains shown)
VH: B1 VH
VL: B1 VL with P27Q, V32I, K79E
FXa assay % of FXa alone, 2.5 nM Ab, 10 nM TFPI [4]: 3.8%
FXa assay % of FXa alone, 5 nM Ab, 10 nM TFPI [4]: 3.6%
FXa assay % of FXa alone, 10 nM Ab, 10 nM TFPI [4]: 4.5%
FXa assay % of FXa alone, 20 nM Ab, 10 nM TFPI [4]: 4%

B6: clone 1238 (antibody, V domains shown)
VH: B1 VH with Q65E, N102H
VL: B1 VL with P27Q
FXa assay % of FXa alone, 2.5 nM Ab, 10 nM TFPI [4]: 4.5%
FXa assay % of FXa alone, 5 nM Ab, 10 nM TFPI [4]: 13.2%
FXa assay % of FXa alone, 10 nM Ab, 10 nM TFPI [4]: 5.6%
FXa assay % of FXa alone, 20 nM Ab, 10 nM TFPI [4]: 63.2%
FXa assay OD, 2.5 nM Ab, 10 nM TFPI [4]: 0.039
FXa assay OD, 5 nM Ab, 10 nM TFPI [4]: 0.115
FXa assay OD, 10 nM Ab, 10 nM TFPI [4]: 0.0485
FXa assay OD, 20 nM Ab, 10 nM TFPI [4]: 0.55

B7: clone 1024 (antibody, V domains shown)
VH: B1 VH with N35S, Q65D
VL: B1 VL with P27Q, V32L
FXa assay % of FXa alone, 2.5 nM Ab, 10 nM TFPI [5]: 4.6%
FXa assay % of FXa alone, 5 nM Ab, 10 nM TFPI [5]: 6.2%
FXa assay % of FXa alone, 10 nM Ab, 10 nM TFPI [5]: 20.4%
FXa assay % of FXa alone, 20 nM Ab, 10 nM TFPI [5]: 42.7%
FXa assay OD, 2.5 nM Ab, 10 nM TFPI [5]: 0.0225
FXa assay OD, 5 nM Ab, 10 nM TFPI [5]: 0.03
FXa assay OD, 10 nM Ab, 10 nM TFPI [5]: 0.0985
FXa assay OD, 20 nM Ab, 10 nM TFPI [5]: 0.206

B8: clone 3007 (antibody, V domains shown)
VH: B1 VH with S30T, T53L
VL: B1 VL with P27Q, V32L
FXa assay % of FXa alone, 2.5 nM Ab, 10 nM TFPI [6]: 3.5%
FXa assay % of FXa alone, 5 nM Ab, 10 nM TFPI [6]: 3.6%
FXa assay % of FXa alone, 10 nM Ab, 10 nM TFPI [6]: 3.6%
FXa assay % of FXa alone, 20 nM Ab, 10 nM TFPI [6]: 3%

B9: clone 1216 (antibody, V domains shown)
VH: B1 VH with S31H, Q65E, N102H
VL: B1 VL with P27Q, V32I, F99L
FXa assay % of FXa alone, 2.5 nM Ab, 10 nM TFPI [4]: 3.6%
FXa assay % of FXa alone, 5 nM Ab, 10 nM TFPI [4]: 4%
FXa assay % of FXa alone, 10 nM Ab, 10 nM TFPI [4]: 3.6%
FXa assay % of FXa alone, 20 nM Ab, 10 nM TFPI [4]: 3.3%

B10: clone 7 (antibody, V domains shown)
VH: B1 VH with S49G, Q65D
VL: B1 VL
FXa assay % of FXa alone, 2.5 nM Ab, 10 nM TFPI [1]: 8.9%
FXa assay % of FXa alone, 5 nM Ab, 10 nM TFPI [1]: 31%
FXa assay % of FXa alone, 10 nM Ab, 10 nM TFPI [1]: 72.1%
FXa assay % of FXa alone, 20 nM Ab, 10 nM TFPI [1]: 75.4%
FXa assay OD, 2.5 nM Ab, 10 nM TFPI [1]: 0.0675
FXa assay OD, 5 nM Ab, 10 nM TFPI [1]: 0.236
FXa assay OD, 10 nM Ab, 10 nM TFPI [1]: 0.549
FXa assay OD, 20 nM Ab, 10 nM TFPI [1]: 0.574

The remaining lines, values ahead:

FXa assay % of FXa alone, 2.5 nM Ab, 10 nM TFPI [2]: 6.4%
FXa assay % of FXa alone, 5 nM Ab, 10 nM TFPI [2]: 9.1%
FXa assay % of FXa alone, 10 nM Ab, 10 nM TFPI [2]: 33.4%
FXa assay % of FXa alone, 20 nM Ab, 10 nM TFPI [2]: 81.3%
FXa assay OD, 2.5 nM Ab, 10 nM TFPI [2]: 0.0495
FXa assay OD, 5 nM Ab, 10 nM TFPI [2]: 0.07
FXa assay OD, 10 nM Ab, 10 nM TFPI [2]: 0.258
FXa assay OD, 20 nM Ab, 10 nM TFPI [2]: 0.626
B2: clone 3120 (antibody, V domains shown)
VH: B1 VH with Q65E, N102Y
VL: B1 VL with P27Q, V32I

FXa assay % of FXa alone, 2.5 nM Ab, 10 nM TFPI [3]: 4.7%
FXa assay % of FXa alone, 5 nM Ab, 10 nM TFPI [3]: 6.1%
FXa assay % of FXa alone, 10 nM Ab, 10 nM TFPI [3]: 7.1%
FXa assay % of FXa alone, 20 nM Ab, 10 nM TFPI [3]: 38.6%
FXa assay OD, 2.5 nM Ab, 10 nM TFPI [3]: 0.038
FXa assay OD, 20 nM Ab, 10 nM TFPI [3]: 0.314
B3: clone 4206 (antibody, V domains shown)
VH: B1 VH with Y57H, Q65E, N84D
VL: B1 VL with P27Q, F99L

FXa assay % of FXa alone, 2.5 nM Ab, 10 nM TFPI [2]: 6.6%
FXa assay % of FXa alone, 5 nM Ab, 10 nM TFPI [2]: 7.7%
FXa assay % of FXa alone, 10 nM Ab, 10 nM TFPI [2]: 14.9%
FXa assay % of FXa alone, 20 nM Ab, 10 nM TFPI [2]: 61.6%
FXa assay OD, 10 nM Ab, 10 nM TFPI [2]: 0.115
FXa assay OD, 20 nM Ab, 10 nM TFPI [2]: 0.474
B4: clone 3131 (antibody, V domains shown)
VH: B1 VH with N35S, N102Q
VL: B1 VL with P27Q, V32I
